Assay results taken from paper PMC6712498.

Biological target: Gaussia princeps luciferase (Gluc)-LiDps fusion protein (Gaussia princeps | Listeria innocua)
Assay: native gel or EMSA + other: TEM; purified refolded Gluc-LiDps; native gel with HuAFn and LiDps as molecular weight markers, and morphological characterization by TEM

Gaussia princeps luciferase (Gluc)-LiDps fusion protein
stoichiometry N: 12 subunits
